Measurements taken from patent publication US20210170043A1, “DC-SIGN ANTIBODY CONJUGATES COMPRISING STING AGONISTS” (NOVARTIS AG, priority 2018, published 2021).

Columns and labels:
Assay type in all cases: in vivo, mouse
[1] = system: transgenic mice expressing human DC-SIGN gene (Tg+); test: Splenic dendritic cell activation in human DC-SIGN transgenic mice, flow cytometry; details: 24 hours post dose
Experimental: Blood was collected at 6 hours post dose to analyze plasma cytokine and chemokine levels and spleens were analyzed at 24 hours post dose to look at dendritic cell activation.
Spleens were harvested 24 hours post dose and analyzed by flow cytometry to look at CD11c+ dendritic cells.
Tumors and/or spleens were extracted at the timepoints indicated from animals. Spleens were processed into a single cell suspension using glass slides and passed through a 100 micron mesh filter. Spleens were lysed in 1 mL of ACK lysis buffer (Life Technologies) for 5 minutes at room temperature. […]
1-2 million cells for each sample were then stained with a cocktail of antibodies to determine impact of the treatments on dendritic cells, myeloid cells and T cells. […] After staining, cells were evaluated on the BD LSRFortessa™ cell analyzer (BD Biosciences, San Jose, Calif.). […]

MC38 tumor cells = test: Flow cytometry of tumors and spleens of MC38 tumor-bearing mice (PDL1, T cell infiltration); details: Tg+ mice
Experimental: Spleens and tumors were analyzed 24 hours post dose by flow cytometry for PDL1 expression.
The effect of DC-SIGN immunoconjugate on tumor T cell infiltration was also evaluated. […] Mice After the mice were sacrificed 7 days after dosing, tumors were analyzed for T cell infiltration and activation by flow cytometry.
Tumors and/or spleens were extracted at the timepoints indicated from animals. Spleens were processed into a single cell suspension using glass slides and passed through a 100 micron mesh filter. Spleens were lysed in 1 mL of ACK lysis buffer (Life Technologies) for 5 minutes at room temperature. After lysis, cells were pelleted and resuspended in complete RMPI medium (RPMI Media 1640 with 10 percent fetal bovine serum (FBS), 0.05 mM 2-mercaptoethanol, 1 percent Penicillin-Streptomycin-Glutamine, 1 percent non-essential amino acids, 1 percent HEPES, 1 percent sodium pyruvate (all media reagents from Thermo Fisher). Tumors were extracted and put into digestion media in gentleMACS C tubes. Digestion media consists of Dulbecco's Modified Eagle Medium with 0.04 U/mL Dispase (StemCell Technologies), 0.1 mg/mL Collagenase P (Sigma) and 0.1 mg/mL DNase (Sigma). Tumors were incubated with in digestion media and then processed using the gentleMACS Dissociator (Miltenyi Biotec Inc, San Diego, Calif.) to obtain a single cell suspension. After processing, cells were filtered in […] filters (Miltenyi Biotec Inc).
1-2 million cells for each sample were then stained with a cocktail of antibodies to determine impact of the treatments on dendritic cells, myeloid cells and T cells. For FACS analysis, cells were stained with a fixable, amine reactive dye to label dead cells (Zombie UV™ fixable viability kit, Biolegend) in PBS. For antibody staining, indicated antibodies (see table below) were diluted in PBS with 0.5% Bovine serum albumin (BSA, from Sigma). Samples were incubated at 4° C. for 30 minutes and then washed 2 times with PBS with 0.5% BSA. Cells were fixed with stabilizing fixative (BD). For intracellular analysis of FoxP3 to evaluate T regulatory cells, cells were fixed and permeabilized with the FoxP3 transcription factor kit according to manufacturer's recommendations (Thermo Fisher). Cells were then stained with FoxP3 clone FJK-16s (Thermo Fisher). After staining, cells were evaluated on the BD LSRFortessa™ cell analyzer (BD Biosciences, San Jose, Calif.).
T cells were identified as CD3+ MHCII− cells. CD8+ T cells and CD4+ T cells were further defined as CD8 and CD4 positive, respectively. Tregs were identified from CD4+ T cells as being FoxP3+.
Dendritic cells were identified as MHCII high CD11c high cells and further gated on expression of CD8 and CD11 b to identify CD8+DC subsets and CD11b+ DCs where noted. Monocytic myeloid derived suppressor cells were identified as CD45+ cells in tumors that express CD11b, MHCII, F4/80, Ly6C and are intermediate for Ly6G.

[2] = system: transgenic mice expressing human DC-SIGN gene (Tg+); test: Plasma cytokine production in transgenic mice expressing human DC-SIGN (ELISA / MesoScaleDiscovery)
Experimental: FIGS. 5A-5E show exemplary data on DC-SIGN immunoconjugates inducing cytokine production in Tg+ mice. […] Plasma levels were analyzed by ELISA (IP-10 and IFNβ) or MesoScaleDiscovery Multiplex analysis (all other analytes). **** denotes p value of <0.0001 using an ANOVA with Tukey's test compared to Tg-2B2 hlgG1 DAPA C1 group.
Mice were bled 6 hours after dosing to collect plasma for analysis of circulating cytokine levels.

[3] = MC38, 1 mg/kg, 24 hours post dose

B1: 2B2 (DAPA) C1 (conjugate)
heavy: QVQLVQSGAEVKKPGASVKVSCKASGYTFTNYGINWVRQAPGQRLEWMGYIYIGNDYTEYNERFKGRVTITSDTSASTAYMELSSLRSEDTAVYYCARLYYGSSLYSYAMDYWGQGTTVTVSSASTKGPSVFPLAPSSKSTSGGTAALGCLVKDYFPCPVTVSWNSGALTSGVHTFPAVLQSSGLYSLSSVVTVPSSSLGTQTYICNVNHKPSNTKVDKRVEPKSCDKTHTCPPCPAPELLGGPSVFLFPPKPKDTLMISRTPEVTCVVVAVSHEDPEVKFNWYVDGVEVHNAKTKPREEQYNSTYRVVSVLTVLHQDWLNGKEYKCKVSNKALAAPIEKTISKAKGQPREPQVYTLPPSREEMTKNQVSLTCLVKGFYPCDIAVEWESNGQPENNYKTTPPVLDSDGSFFLYSKLTVDKSRWQQGNVFSCSVMHEALHNHYTQKSLSLSPGK
light: DIVMTQSPLSLPVTPGEPASISCRSSKSLLHSSGNTYLYWFLQKPGQSPQLLISRMSNLASGVPDRFSGSGSGTDFTLKISRVEAEDVGVYYCMQHLEYPYTFGGGTKVEIKRTVAAPSVFIFPPSDEQLKSGTASVVCLLNNFYPREAKVQWKVDNALQSGNSQESVTEQDSKDSTYSLSSTLTLSKADYEKHKVYACEVTHQGLSSPVTKSFNRGEC
[1]; 1 mg/kg i.v. (Fab2 1.33 mg/kg, Fab 1.3 mg/kg)
  CD86 upregulation on splenic dendritic cells: significantly upregulated
[1]; 1 mg/kg i.v.
  CD80 upregulation on splenic dendritic cells: significantly upregulated
MC38 tumor cells; [3]
  surface PDL1 on splenic CD11c high dendritic cells: significant upregulation of surface PDL1
  surface PDL1 on tumor resident dendritic cells and mMDSCs: significant upregulation of surface PDL1
MC38 tumor cells; MC38, 1 mpk, 24 and 48 hours post dosing
  tumor CD3+ T cells: increased CD3+ T cells
MC38 tumor cells; MC38, 1 mpk, 24 hours post dose
  T cell activation as measured by CD69 upregulation on tumor CD4 and CD8 T cells: Enhanced T cell activation
MC38 tumor cells; MC38, 1 mpk, day 7 post dose
  tumor CD8+ T cells: significant increase in CD8+ T cells
  tumor FoxP3+ T regulatory cells: significant decrease in FoxP3+T regulatory cells
MC38 tumor cells; MC38, conjugate plus anti-PDL1 clone 10F.9G2, 7 days after dosing
  tumor infiltration of CD8 T cells, combination with anti-PDL1: enhanced infiltration of CD8 T cells
[2]
  circulating plasma IL-12p70: increased
  circulating plasma IP-10: increased
  circulating plasma TNFα: increased
